Test results reported in patent publication US12630600B2 (MEDIMMUNE LIMITED, priority 2022, dated 2026).
Starred links: 1 amine or outer side, 2 acyl side, 3 side chain; linkers in the order of their positions; H or OH if unused. Non-standard residues stand in square brackets, D forms with d. Groups on a side chain read outwards from the residue. Primed or numbered codes have the meaning given here. No end group written: not given here. *: point of attachment. C20 diacid = O=C(O)CCCCCCCCCCCCCCCCCCC(=O)*; C18 diacid = O=C(O)CCCCCCCCCCCCCCCCC(=O)*; γGlu = O=C(O)[C@H](CCC(=O)[*:2])N[*:1]; Stearoyl = CCCCCCCCCCCCCCCCCC(=O)*; Palmitoyl = CCCCCCCCCCCCCCCC(=O)*; αMeF = C[C@](N)(Cc1ccccc1)C(=O)O; Myristoyl = CCCCCCCCCCCCCC(=O)*; (PEG)2 = polyethylene glycol 2; PEG2′ = polyethylene glycol 2; αMeS = C[C@](N)(CO)C(=O)O; AEEA = NCCOCCOCC(=O)O; Aib = CC(C)(N)C(=O)O

B1: Peptide 16 (peptide)
peptide: H[Aib]HGS[αMeF]TSDVSK[αMeF]LDSK([AEEA-AEEA-γGlu-C18 diacid])AARD[αMeF]IA[Aib]IANT-NH2
modifications: N-terminus assumed
SMILES: CC[C@H](C)[C@H](NC(=O)C(C)(C)NC(=O)[C@H](C)NC(=O)[C@@H](NC(=O)[C@](C)(Cc1ccccc1)NC(=O)[C@H](CC(=O)O)NC(=O)[C@H](CCCNC(=N)N)NC(=O)[C@H](C)NC(=O)[C@H](C)NC(=O)[C@H](CCCCNC(=O)COCCOCCNC(=O)COCCOCCNC(=O)CC[C@H](NC(=O)CCCCCCCCCCCCCCCCC(=O)O)C(=O)O)NC(=O)[C@H](CO)NC(=O)[C@H](CC(=O)O)NC(=O)[C@H](CC(C)C)NC(=O)[C@](C)(Cc1ccccc1)NC(=O)[C@H](CCCCN)NC(=O)[C@H](CO)NC(=O)[C@@H](NC(=O)[C@H](CC(=O)O)NC(=O)[C@H](CO)NC(=O)[C@@H](NC(=O)[C@](C)(Cc1ccccc1)NC(=O)[C@H](CO)NC(=O)CNC(=O)[C@H](Cc1c[nH]cn1)NC(=O)C(C)(C)NC(=O)[C@@H](N)Cc1c[nH]cn1)[C@@H](C)O)C(C)C)[C@@H](C)CC)C(=O)N[C@@H](C)C(=O)N[C@@H](CC(N)=O)C(=O)N[C@H](C(N)=O)[C@@H](C)O
B2: Peptide 1 (peptide)
peptide: HSQGS[αMeF]TSDVSK[Aib]LDSK([AEEA-AEEA-γGlu-C18 diacid])AAQD[αMeF]VQ[Aib]IAN-NH2
modifications: N-terminus assumed
SMILES: CC[C@H](C)[C@H](NC(=O)C(C)(C)NC(=O)[C@H](CCC(N)=O)NC(=O)[C@@H](NC(=O)[C@](C)(Cc1ccccc1)NC(=O)[C@H](CC(=O)O)NC(=O)[C@H](CCC(N)=O)NC(=O)[C@H](C)NC(=O)[C@H](C)NC(=O)[C@H](CCCCNC(=O)COCCOCCNC(=O)COCCOCCNC(=O)CC[C@H](NC(=O)CCCCCCCCCCCCCCCCC(=O)O)C(=O)O)NC(=O)[C@H](CO)NC(=O)[C@H](CC(=O)O)NC(=O)[C@H](CC(C)C)NC(=O)C(C)(C)NC(=O)[C@H](CCCCN)NC(=O)[C@H](CO)NC(=O)[C@@H](NC(=O)[C@H](CC(=O)O)NC(=O)[C@H](CO)NC(=O)[C@@H](NC(=O)[C@](C)(Cc1ccccc1)NC(=O)[C@H](CO)NC(=O)CNC(=O)[C@H](CCC(N)=O)NC(=O)[C@H](CO)NC(=O)[C@@H](N)Cc1c[nH]cn1)[C@@H](C)O)C(C)C)C(C)C)C(=O)N[C@@H](C)C(=O)N[C@@H](CC(N)=O)C(N)=O
B3: Peptide 15 (peptide)
peptide: H[Aib]HGS[αMeF]TSDVSK[αMeF]LDSK([AEEA-AEEA-γGlu-C18 diacid])AARD[αMeF]VE[Aib]IANT-NH2
modifications: N-terminus assumed
SMILES: CC[C@H](C)[C@H](NC(=O)C(C)(C)NC(=O)[C@H](CCC(=O)O)NC(=O)[C@@H](NC(=O)[C@](C)(Cc1ccccc1)NC(=O)[C@H](CC(=O)O)NC(=O)[C@H](CCCNC(=N)N)NC(=O)[C@H](C)NC(=O)[C@H](C)NC(=O)[C@H](CCCCNC(=O)COCCOCCNC(=O)COCCOCCNC(=O)CC[C@H](NC(=O)CCCCCCCCCCCCCCCCC(=O)O)C(=O)O)NC(=O)[C@H](CO)NC(=O)[C@H](CC(=O)O)NC(=O)[C@H](CC(C)C)NC(=O)[C@](C)(Cc1ccccc1)NC(=O)[C@H](CCCCN)NC(=O)[C@H](CO)NC(=O)[C@@H](NC(=O)[C@H](CC(=O)O)NC(=O)[C@H](CO)NC(=O)[C@@H](NC(=O)[C@](C)(Cc1ccccc1)NC(=O)[C@H](CO)NC(=O)CNC(=O)[C@H](Cc1c[nH]cn1)NC(=O)C(C)(C)NC(=O)[C@@H](N)Cc1c[nH]cn1)[C@@H](C)O)C(C)C)C(C)C)C(=O)N[C@@H](C)C(=O)N[C@@H](CC(N)=O)C(=O)N[C@H](C(N)=O)[C@@H](C)O
B4: Peptide 125 (peptide)
peptide: H[Aib]QGS[αMeF]TSDVSKILDSK([(PEG)2-(PEG)2-γGlu-γGlu-Palmitoyl])AAQD[αMeF]VQ[Aib]IINT-NH2
B5: Peptide 132 (peptide)
peptide: H[αMeS]QGS[αMeF]TSDVSKILDSK([PEG2′-PEG2′-γGlu-γGlu-Myristoyl])AAQD[αMeF]VQ[Aib]IINT-NH2
B6: Peptide 17 (peptide)
peptide: H[Aib]HGS[αMeF]TSDVSK[αMeF]LDSK([AEEA-AEEA-γGlu-C18 diacid])AARD[αMeF]VESIANT-NH2
modifications: N-terminus assumed
SMILES: CC[C@H](C)[C@H](NC(=O)[C@H](CO)NC(=O)[C@H](CCC(=O)O)NC(=O)[C@@H](NC(=O)[C@](C)(Cc1ccccc1)NC(=O)[C@H](CC(=O)O)NC(=O)[C@H](CCCNC(=N)N)NC(=O)[C@H](C)NC(=O)[C@H](C)NC(=O)[C@H](CCCCNC(=O)COCCOCCNC(=O)COCCOCCNC(=O)CC[C@H](NC(=O)CCCCCCCCCCCCCCCCC(=O)O)C(=O)O)NC(=O)[C@H](CO)NC(=O)[C@H](CC(=O)O)NC(=O)[C@H](CC(C)C)NC(=O)[C@](C)(Cc1ccccc1)NC(=O)[C@H](CCCCN)NC(=O)[C@H](CO)NC(=O)[C@@H](NC(=O)[C@H](CC(=O)O)NC(=O)[C@H](CO)NC(=O)[C@@H](NC(=O)[C@](C)(Cc1ccccc1)NC(=O)[C@H](CO)NC(=O)CNC(=O)[C@H](Cc1c[nH]cn1)NC(=O)C(C)(C)NC(=O)[C@@H](N)Cc1c[nH]cn1)[C@@H](C)O)C(C)C)C(C)C)C(=O)N[C@@H](C)C(=O)N[C@@H](CC(N)=O)C(=O)N[C@H](C(N)=O)[C@@H](C)O
B7: Peptide 127 (peptide)
peptide: H[Aib]QGS[αMeF]TSDVSKILDSK([(PEG)2-(PEG)2-γGlu-Stearoyl])AAQD[αMeF]VQ[Aib]IINT-NH2
B8: Peptide 133 (peptide)
peptide: H[αMeS]QGS[αMeF]TSDVSKILDSK([PEG2′-PEG2′-γGlu-Stearoyl])AAQD[αMeF]VQ[Aib]IINT-NH2
B9: Peptide 131 (peptide)
peptide: H[αMeS]QGS[αMeF]TSDVSKILDSK([PEG2′-PEG2′-γGlu-γGlu-Palmitoyl])AAQD[αMeF]VQ[Aib]IINT-NH2
B10: Peptide 18 (peptide)
peptide: H[Aib]HGS[αMeF]TSDVSK[αMeF]LDSK([AEEA-AEEA-γGlu-C18 diacid])AARD[αMeF]VQSIANT-NH2
modifications: N-terminus assumed
SMILES: CC[C@H](C)[C@H](NC(=O)[C@H](CO)NC(=O)[C@H](CCC(N)=O)NC(=O)[C@@H](NC(=O)[C@](C)(Cc1ccccc1)NC(=O)[C@H](CC(=O)O)NC(=O)[C@H](CCCNC(=N)N)NC(=O)[C@H](C)NC(=O)[C@H](C)NC(=O)[C@H](CCCCNC(=O)COCCOCCNC(=O)COCCOCCNC(=O)CC[C@H](NC(=O)CCCCCCCCCCCCCCCCC(=O)O)C(=O)O)NC(=O)[C@H](CO)NC(=O)[C@H](CC(=O)O)NC(=O)[C@H](CC(C)C)NC(=O)[C@](C)(Cc1ccccc1)NC(=O)[C@H](CCCCN)NC(=O)[C@H](CO)NC(=O)[C@@H](NC(=O)[C@H](CC(=O)O)NC(=O)[C@H](CO)NC(=O)[C@@H](NC(=O)[C@](C)(Cc1ccccc1)NC(=O)[C@H](CO)NC(=O)CNC(=O)[C@H](Cc1c[nH]cn1)NC(=O)C(C)(C)NC(=O)[C@@H](N)Cc1c[nH]cn1)[C@@H](C)O)C(C)C)C(C)C)C(=O)N[C@@H](C)C(=O)N[C@@H](CC(N)=O)C(=O)N[C@H](C(N)=O)[C@@H](C)O
B11: Peptide 129 (peptide)
peptide: H[Aib]QGS[αMeF]TSDVSKILDSK([(PEG)2-(PEG)2-γGlu-Myristoyl])AAQD[αMeF]VQ[Aib]IINT-NH2
B12: Peptide 128 (peptide)
peptide: H[Aib]QGS[αMeF]TSDVSKILDSK([(PEG)2-(PEG)2-γGlu-Palmitoyl])AAQD[αMeF]VQ[Aib]IINT-NH2
B13: Peptide 14 (peptide)
peptide: H[Aib]HGS[αMeF]TSDVSK[αMeF]LDSK([AEEA-AEEA-γGlu-γGlu-C20 diacid])AARD[αMeF]VQ[Aib]IANT-NH2
modifications: N-terminus assumed
SMILES: CC[C@H](C)[C@H](NC(=O)C(C)(C)NC(=O)[C@H](CCC(N)=O)NC(=O)[C@@H](NC(=O)[C@](C)(Cc1ccccc1)NC(=O)[C@H](CC(=O)O)NC(=O)[C@H](CCCNC(=N)N)NC(=O)[C@H](C)NC(=O)[C@H](C)NC(=O)[C@H](CCCCNC(=O)COCCOCCNC(=O)COCCOCCNC(=O)CC[C@H](NC(=O)CC[C@H](NC(=O)CCCCCCCCCCCCCCCCCCC(=O)O)C(=O)O)C(=O)O)NC(=O)[C@H](CO)NC(=O)[C@H](CC(=O)O)NC(=O)[C@H](CC(C)C)NC(=O)[C@](C)(Cc1ccccc1)NC(=O)[C@H](CCCCN)NC(=O)[C@H](CO)NC(=O)[C@@H](NC(=O)[C@H](CC(=O)O)NC(=O)[C@H](CO)NC(=O)[C@@H](NC(=O)[C@](C)(Cc1ccccc1)NC(=O)[C@H](CO)NC(=O)CNC(=O)[C@H](Cc1c[nH]cn1)NC(=O)C(C)(C)NC(=O)[C@@H](N)Cc1c[nH]cn1)[C@@H](C)O)C(C)C)C(C)C)C(=O)N[C@@H](C)C(=O)N[C@@H](CC(N)=O)C(=O)N[C@H](C(N)=O)[C@@H](C)O

molecular target: human glucagon receptor (human, UniProt P47871); experiment: cell-based or functional assay

cAMP production, hGluc-R EC50 (pM)	Binder
105	B1
> 27100	B2
61.4	B3
6.68	B4
34.3	B5
135	B6
12.6	B7
30	B8
17.8	B9
122	B10
4.1	B11
4.7	B12
462	B13

molecular target: human GLP-1 receptor (human, UniProt P43220); experiment: cell-based or functional assay

cAMP production, hGLP-1R EC50 (pM)	Binder
33	B1
3200	B2
33.1	B3
0.575	B4
0.949	B5
45	B6
0.998	B7
1.06	B8
0.511	B9
20.5	B10
0.462	B11
0.788	B12
93.8	B13
